From a protein production outcome set (Wang et al. 2014) come the findings set out here.

A short description of the data set: label from the status in PepcDB records.
As to “MAADHTDVLIVGAGPTGLFAGFYVGMRGLSFRFVDPLPEPGGQLTALYPEKYIYDVAGFPKVYAKDLVKGLVEQVAPFNPVYSLGERAETLEREGDLFKVTTSQGNAYTAKAVIIAAGVGAFEPRRIGAPGEREFEGRGVYYAVKSKAEFQGKRVLIVGGGDSAVDWALNLLDTARRITLIHRRPQFRAHEASVKELMKAHEEGRLEVLTPYELRRVEGDERVRWAVVFHNQTQEELALEVDAVLILAGYITKLGPLANWGLALEKNKIKVDTTMATSIPGVYACGDIVTYPGKLPLIVLGFGEAAIAANHAAAYANPALKVNPGHSSEKAAPGT”, the protein production entry is “not failed”. As to “MMSDSPQKLGRNEWNAYMDKVKAKDREAFAFVFRFYAPKLKQFAYKHVGNEQVAMEMVQETMATVWQKAHLYDGKKSALSTWIYTIIRNLCFDLLRKQKGKELHIHSDDIWPSEYYPPDMVDHYSPEQDMLKEQVVKFLDILPKNQRDVLQAVYLEELPHQQVAELFDIPLGTVKSRLRLAVEKLRHSMHTEQL”, the protein production entry is recorded as “failed”. “MNAYYIQDRLEAQSWARHYQQIAREEKEAELADDMEKGLPQHLFESLCIDHLQRHGASKKAITRAFDDDVEFQERMAEHIRYIVETIAHHQADIDSEV”: the protein production result is “failed”.

On to “MTRSQNVLAGLLLAGLLAPHAVSAEGYQTPPPELAALVDAPRTPLQSLNPQGDAVLQTHRPGLPAIADVAQPELKLAGLRLNPRMRAASRFDFGSALTLLDVKSGKSRPVTGLPARPRIADNAWSPDGKQVALSLWGDRGVELWLLDAASARVRRLGDFHLNASSGRGFAWMGAQLLVKLLPAGQGPAPEKPSTPTGPNIQQSAGGALSQTRTYPDLLKTPYDADLLDYELNSQLALVDLSGRTKLIGKPDRYLSVQASPDRRYLLATKLQRPYSTLVPLNRFPRRIEVLNLQGDSVHLVAQRPLLERMPSGNDAVETGPREVQWRTDAPATLFWAEAQDGGDPSTPAKARDALYLLPAPFQQPPLKLQELASRFAGIQWGRGDLALVSEYWWKTRDLKVWRVRPAEPDHAPTLLNRRSSEDRYADPGSPAMVSNADGLPVLQTSPDGGSLYLLGEGASPEGDRPFIDQLNLADNKATRLWRSQAPWYEAPMAVLDGGKTALLSREQADAPPNLYLKTLGQGGGLKQLTFFPHPTPQLKNVQKRQLRYKRADGIDLTATLYLPPGYDAKRDGPLPMLMWAYPAEFKSADAASQVTDSPYRFNRVGYWGPEALLARGYVVLDDPSMPIVGAGKQEPNDTYLPQLKMDAQAAVDEVVRLGVADRDRIAIGGHSYGAFMTANLLAHTRLFRAGIARSGAYNRTLTPFGFQSEERDFWQAKDVYQAMSPFNYAEQIKDALLLIHGEADNNPGTFPIQSERMYQALQGLGGTVRLAMLPAESHGYRARESILHMLWEEDRWLDQFVKRAKPRAQGTAAR”, for which the protein production result was “failed”. “MLPVASLLILVPLIFAVVTFFTKTKQLAAGFGFLGSLATLGLTLYAYLNFDSSTAAMQFYESVSWIPFLGVNYSVGIDGVSMPLILLNAIVIPFMILFTWKEEMESPNRFYGLILTMQAAVIGVFVALDFVVFYIFWELTLVPLFFIVNLWGGANRAHASYKFFIYTHVASLVMLLGIFGLFYTALNQTGVPTFDIRELIAQFQFFEPGLMKDGIFLAILFGFLAKLPAFPFHSWLPDAYSEAPTAGSILFILLKIGGYGLFRISLPMLPNTGSPQLMIMILGLLGSVSILYGALLALRQKDLKRMIAYSSLSHMGYVILGSAGLVTLSVSGAMFQQFSHGLIMSIMFMSAGAIQTAAGTRIINELGGLAKKMPMLTVAMMVGFMASLGLPGLTGFIAEFLVLTFTFTNLPVFVVIALLAIVVTAGYHLWAMQRAMFGVYNEKLGDVRDINSIQVFSMAVIALLVLYFGLNPSPVLDMMINNSEAIVSLAAGMGV”: the protein production result is on record as “failed”. As to “MKIDILDKGFVELVDVMGNDLSAVRAARVSFDMGLKDEERDRHLIEYLMKHGHETPFEHIVFTFHVKAPIFVARQWFRHRIASYNELSGRYSKLSYEFYIPSPERLEGYKTTIPPERVTEKISEIVDKAYRTYLELIESGVPREVARIVLPLNLYTRFFWTVNARSLMNFLNLRADSHAQWEIQQYALAIARIFKEKCPWTFEAFLKYAYKGDILKEVQV”, the protein production result was “not failed”. On to “PITDERVYESIGHYGGETVKIVRIEKARDIPLGATVRNEMDSVIISRIVKGGAAEKSGLLHEGDEVLEINGIEIRGKDVNEVFDLLSDMHGTLTFVLIPS”, for which the protein production result is reported as “not failed”. Take “MSAKSPTPQPPYEIPSFRKRRLITTGLLTITTLWFIYFYVDLVSATTLLTLPVIIAAPLIMVYIWYHEFTYYARVRKNNKLYKALYGHLQNHQHPENTDTPPM”: the protein production result is reported as “failed”.
